B1: Endo-1,4-beta-xylanase A, P26514 (parent)
chain: MGSYALPRSGVRRSIRVLLLALVVGVLGTATALIAPPGAHAAESTLGAAAAQSGRYFGTAIASGRLSDSTYTSIAGREFNMVTAENEMKIDATEPQRGQFNFSSADRVYNWAVQNGKQVRGHTLAWHSQQPGWMQSLSGSALRQAMIDHINGVMAHYKGKIVQWDVVNEAFADGSSGARRDSNLQRSGNDWIEVAFRTARAADPSAKLCYNDYNVENWTWAKTQAMYNMVRDFKQRGVPIDCVGFQSHFNSGSPYNSNFRTTLQNFAALGVDVAITELDIQGAPASTYANVTNDCLAVSRCLGITVWGVRDSDSWRSEQTPLLFNNDGSKKAAYTAVLDALNGGDSSEPPADGGQIKGVGSGRCLDVPDASTSDGTQLQLWDCHSGTNQQWAATDAGELRVYGDKCLDAAGTSNGSKVQIYSCWGGDNQKWRLNSDGSVVGVQSGLCLDAVGNGTANGTLIQLYTCSNGSNQRWTRT

Variants of: B1
Conditions: Streptomyces lividans; pH 6; Thermal; CD; sodium phosphate 10 mM; structure 1XAS; whole UniProt chain shown

Variant	Tm	change of melting temperature, mutant - wild type (higher = more stable)
Y213F	67.1 °C	-0.9 °C
Y213A	63 °C	-5 °C
Y213S	69.6 °C	1.6 °C
W315F	68.8 °C	0.8 °C
W315H	68.2 °C	0.2 °C
W315A	72.1 °C	4.1 °C
W126H	67 °C	-1 °C
W126A	70 °C	2 °C
W126F	64 °C	-4 °C
W307A	63.3 °C	-4.7 °C
W307F	64.7 °C	-3.3 °C
W307H	60.7 °C	-7.3 °C
